B1: mAb8.0 Fab (yeast clone culture supernatant) (Fab, V domains shown)
VH: QVQLVQSGAEVKKPGSSVKVSCKASGGTFSNYAISWVRQAPGQGLEWMGGILPILGTVDYAQKFQGRVTITADESTSTAYMELSSLRSEDTAVYYCAREPWYRLGAFDVWGQGTLVTVSS
VL: DIQMTQSPSSLSASVGDRVTITCRASQTIYKYLNWYQQKPGKAPKLLIYAASSLQSGVPSRFSGSGSGTDFTLTISSLQPEDFATYYCQQYSSIPYTFGQGTKVEIK
B2: mAb7.0 Fab (yeast clone culture supernatant) (Fab, V domains shown)
VH: QVQLVESGGGVVQPGRSLRLSCAASGFTFSSYGMHWVRQAPGKGLEWVAVISYGGSERYYADSVKGRFTISRDNSKNTLYLQMNSLRAEDTAVYYCAREPWYSSRGWTGYGFDVWGQGTLVTVSS
VL: EIVLTQSPGTLSLSPGERATLSCRASQSVSSNYLAWYQQKPGQAPKLLIYSASSLQSGVPSRFSGSGSGTDFTLTISSLQPEDFATYYCQQTYSYPPTFGQGTKVEIK
B3: mAb6.0 Fab (yeast clone culture supernatant) (Fab, V domains shown)
VH: QLQLQESGPGLVKPSETLSLTCTVSGGSITSSNYYWGWIRQPPGKGLEWIGSIDYTGSTYYNPSLKSRVTISVDTSKNQFSLKLSSVTAADTAVYYCARGKYYETYLGFDVWGQGTLVTVSS
VL: QSVLTQPPSVSGAPGQRVTISCTGSSSNIGAGYDVHWYQQLPGTAPKLLIYGNTNRPSGVPDRFSGSKSGTSASLAITGLQAEDEADYYCQSYDISLSGWVFGGGTKLTVL
B4: mAb2.0 Fab (yeast clone culture supernatant) (Fab, V domains shown)
VH: QLQLQESGPGLVKPSETLSLTCTVSGGSISTSSYYWGWIRQPPGKGLEWIGSIYYTGNTYYNPSLKSRVTISVDTSKNQFSLKLSSVTAADTAVYYCARVRYGVGVPRYFDPWGQGTLVTVSS
VL: B3 VL with G32H, T54D, I95Y, W100Y
B5: mAb1.0 Fab (yeast clone culture supernatant) (Fab, V domains shown)
VH: QVQLVESGGGVVQPGRSLRLSCAASGFSFSAYAMHWVRQAPGKGLEWVAVISYDGTNEYYADSVKGRFTISRDNSKNTLYLQMNSLRAEDTAVYYCARGIRIFTSYFDSWGQGTLVTVSS
VL: B3 VL with G32H, G52S, T54N, I95Y, S98R, W100Y
B6: mAb4.0 Fab (yeast clone culture supernatant) (Fab, V domains shown)
VH: QLQLQESGPGLVKPSETLSLTCTVSGGSIGSRSYYWGWIRQPPGKGLEWIGSIHYSGTTYYNPSLKSRVTISVDTSKNQFSLKLSSVTAADTAVYYCARVAPSYPRVFDYWGQGTLVTVSS
VL: B3 VL with T54R, I95Y, S98R, G99V, W100Y
B7: mAb3.0 Fab (yeast clone culture supernatant) (Fab, V domains shown)
VH: B4 VH with T31S, S32T, Y54H, T56S, R101H, V104G, G105Y, V106I, Y109R, P112H
VL: B3 VL with I95Y, S98R, W100Y

This is an account of results in patent US20230235040A1.

Substitutions are numbered along the chain they refer to.

Sequence of hu-IL-36γ (human IL-36γ, N-terminally truncated active form S18-D169) (human) (Q9NZH8 18-169 limits assumed): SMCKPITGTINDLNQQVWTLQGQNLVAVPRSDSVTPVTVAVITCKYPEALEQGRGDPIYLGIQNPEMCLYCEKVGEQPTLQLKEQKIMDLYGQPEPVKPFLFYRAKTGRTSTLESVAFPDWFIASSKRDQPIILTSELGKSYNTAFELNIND
Sequence of hu-IL-36α (human IL-36α, N-terminally truncated active form K6-F158) (human) (Q9UHA7 6-158 limits assumed): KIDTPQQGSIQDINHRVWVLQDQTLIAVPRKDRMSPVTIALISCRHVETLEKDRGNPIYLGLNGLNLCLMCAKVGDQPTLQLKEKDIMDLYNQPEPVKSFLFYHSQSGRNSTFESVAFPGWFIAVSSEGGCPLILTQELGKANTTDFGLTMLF

One test addresses hu-IL-36α (human IL-36α, N-terminally truncated active form K6-F158) (human) (UniProt Q9UHA7). Kind of test: ELISA, yeast Fab supernatant, anti-Fab-HRP.
The molecule B1 yielded an ELISA OD450 of 0.0698 OD450.
On to B2, for which the ELISA OD450 stood at 0.0604 OD450.
The same measure, in the same setting: next, B3: 0.0638 OD450.

Another test deals with T1, hu-IL-36β (human IL-36β, N-terminally truncated active form R5-E157) (human).
T1 sequence: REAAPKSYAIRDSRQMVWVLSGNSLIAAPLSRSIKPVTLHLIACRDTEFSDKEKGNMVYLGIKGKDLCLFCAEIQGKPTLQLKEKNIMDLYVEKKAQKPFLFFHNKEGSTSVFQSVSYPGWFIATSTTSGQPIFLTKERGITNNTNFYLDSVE
Put plainly: ELISA, yeast Fab supernatant, anti-Fab-HRP.
As to B4, the ELISA OD450 came to 0.0604 OD450.
Still for that read-out and setting: next, B5: 0.0523 OD450.
On the same count and under the same terms, next, B6: 0.0513 OD450; B7: 0.11 OD450.

Another test addresses hu-IL-36γ (human IL-36γ, N-terminally truncated active form S18-D169) (human) (UniProt Q9NZH8). Kind of test: ELISA, yeast Fab supernatant, anti-Fab-HRP.
As for B1, the ELISA OD450 turned out to be 0.073 OD450.
On the same count and under the same terms, in the case of B2 it was 0.0724 OD450.
B3 yielded an ELISA OD450 of 0.0656 OD450.
